B1: HHH_rd1_0493 (parent)
chain: RDEDEKEKIKEALKRGNEDKAKEIAKRANVSPEEYERLRKEAE

Variants of: B1
Experiment: folding stability dG (cDNA display proteolysis); higher = more stable
Details: PBS, room temperature

Variant | folding stability dG
D19E | 3.28 kcal/mol
D19G | 2.76 kcal/mol
D19M | 3.04 kcal/mol
D19P | 2.64 kcal/mol
D19I | 2.95 kcal/mol
D19V | 2.99 kcal/mol
D19K | 3.07 kcal/mol
D19R | 2.97 kcal/mol
D19Y | 2.5 kcal/mol
D19S | 2.93 kcal/mol
D19H | 2.85 kcal/mol
D19L | 2.98 kcal/mol
D19N | 2.86 kcal/mol
D19T | 3.05 kcal/mol
D19W | 2.72 kcal/mol
D19Q | 3.15 kcal/mol
D19A | 3.31 kcal/mol
D19F | 2.6 kcal/mol
G16I | 0.476 kcal/mol
G16A | 1.67 kcal/mol
G16E | 1.19 kcal/mol
G16F | 1.55 kcal/mol
G16D | 1.47 kcal/mol
G16T | 0.598 kcal/mol

Variant | folding stability dG
G16W | 0.968 kcal/mol
G16C | 1.76 kcal/mol
G16P | 0.767 kcal/mol
G16R | 1.97 kcal/mol
G16L | 1.39 kcal/mol
G16M | 1.46 kcal/mol
G16H | 2.04 kcal/mol
G16Y | 0.998 kcal/mol
G16N | 1.91 kcal/mol
G16S | 1.29 kcal/mol
G16Q | 1.56 kcal/mol
G16V | 0.445 kcal/mol
G16K | 1.73 kcal/mol
R27L | 2.82 kcal/mol
R27S | 2.68 kcal/mol
R27Y | 2.21 kcal/mol
R27D | 2.26 kcal/mol
R27T | 2.51 kcal/mol
R27C | 2 kcal/mol
R27G | 2.36 kcal/mol
R27P | 0.689 kcal/mol
R27F | 2.01 kcal/mol
R27I | 2.65 kcal/mol
R27K | 2.93 kcal/mol

Variant | folding stability dG
R27E | 2.71 kcal/mol
R27Q | 2.83 kcal/mol
R27A | 3.04 kcal/mol
R27M | 2.61 kcal/mol
R27N | 2.83 kcal/mol
R27W | 2 kcal/mol
R27H | 2.61 kcal/mol
R27V | 2.42 kcal/mol
E18Y | 3.21 kcal/mol
E18F | 3.24 kcal/mol
E18Q | 2.54 kcal/mol
E18S | 2.47 kcal/mol
E18D | 2.47 kcal/mol
E18G | 2.06 kcal/mol
E18L | 2.86 kcal/mol
E18W | 2.62 kcal/mol
E18R | 2.15 kcal/mol
E18V | 3.19 kcal/mol
E18K | 2.25 kcal/mol
E18M | 2.74 kcal/mol
E18C | 2.58 kcal/mol
E18H | 2.94 kcal/mol
E18I | 3.25 kcal/mol
E18T | 2.84 kcal/mol

Variant | folding stability dG
E18A | 2.59 kcal/mol
E18N | 2.29 kcal/mol
E18P | 2.48 kcal/mol
A28G | 2.32 kcal/mol
A28D | 1.36 kcal/mol
A28R | 1.84 kcal/mol
A28Q | 2.23 kcal/mol
A28N | 2.9 kcal/mol
A28L | 3.25 kcal/mol
A28H | 2.83 kcal/mol
A28C | 2.78 kcal/mol
A28F | 2.91 kcal/mol
A28W | 2.25 kcal/mol
A28M | 2.64 kcal/mol
A28P | 0.576 kcal/mol
A28E | 1.96 kcal/mol
A28K | 1.82 kcal/mol
A28I | 2.98 kcal/mol
A28S | 2.51 kcal/mol
A28V | 2.32 kcal/mol
A28T | 2.25 kcal/mol
E11K | 2.24 kcal/mol
E11Q | 2.83 kcal/mol
E11Y | 1.67 kcal/mol

Variant | folding stability dG
E11I | 2.42 kcal/mol
E11L | 2.71 kcal/mol
E11P | 0.82 kcal/mol
E11N | 2.88 kcal/mol
E11W | 1.91 kcal/mol
E11S | 2.58 kcal/mol
E11G | 2.34 kcal/mol
E11R | 2.54 kcal/mol
E11H | 2.38 kcal/mol
E11V | 2.04 kcal/mol
E11T | 2.29 kcal/mol
E11M | 2.67 kcal/mol
K22E | 2.26 kcal/mol
K22L | 3.1 kcal/mol
K22G | 1.64 kcal/mol
K22Q | 2.86 kcal/mol
K22V | 2.44 kcal/mol
K22C | 1.79 kcal/mol
K22H | 2.46 kcal/mol
K22P | 0.613 kcal/mol
K22S | 2.2 kcal/mol
K22M | 3.03 kcal/mol
K22T | 2.24 kcal/mol
K22Y | 2.11 kcal/mol

Variant | folding stability dG
K22W | 2.75 kcal/mol
K22N | 2.11 kcal/mol
K22A | 2.61 kcal/mol
K22D | 1.73 kcal/mol
K22I | 2.8 kcal/mol
K22R | 3.21 kcal/mol
K22F | 2.31 kcal/mol
K14V | 2.33 kcal/mol
K14L | 2.67 kcal/mol
K14N | 1.81 kcal/mol
K14A | 2.53 kcal/mol
K14E | 1.75 kcal/mol
K14H | 2.28 kcal/mol
K14C | 2.24 kcal/mol
K14Y | 1.97 kcal/mol
K14S | 2.36 kcal/mol
K14M | 2.79 kcal/mol
K14R | 3.32 kcal/mol
K14I | 2.67 kcal/mol
K14Q | 2.3 kcal/mol
K14D | 1.1 kcal/mol
K14G | 1.98 kcal/mol
K14F | 1.8 kcal/mol
K14T | 2.07 kcal/mol

Variant | folding stability dG
K14W | 1.9 kcal/mol
K14P | 0.417 kcal/mol
K26D | 2.71 kcal/mol
K26T | 2.79 kcal/mol
K26N | 2.64 kcal/mol
K26G | 2.31 kcal/mol
K26M | 2.91 kcal/mol
K26I | 2.91 kcal/mol
K26H | 2.74 kcal/mol
K26A | 3.03 kcal/mol
K26Q | 2.99 kcal/mol
K26R | 3.1 kcal/mol
K26L | 3.05 kcal/mol
K26S | 2.75 kcal/mol
K26W | 2.01 kcal/mol
K26F | 2.47 kcal/mol
K26V | 2.73 kcal/mol
K26E | 2.83 kcal/mol
K26P | 0.553 kcal/mol
K26Y | 2.35 kcal/mol
L13E | 0.376 kcal/mol
L13I | 2.84 kcal/mol
L13P | 0.435 kcal/mol
L13S | 0.332 kcal/mol

Variant | folding stability dG
L13K | 0.273 kcal/mol
L13Y | 0.88 kcal/mol
L13Q | 0.615 kcal/mol
L13G | 0.235 kcal/mol
L13M | 2.49 kcal/mol
L13N | 0.415 kcal/mol
L13F | 2.85 kcal/mol
L13V | 1.58 kcal/mol
L13W | 1.14 kcal/mol
L13H | 0.865 kcal/mol
L13C | 1.37 kcal/mol
L13T | 0.471 kcal/mol
L13D | 0.379 kcal/mol
L13R | 0.401 kcal/mol
L13A | 0.528 kcal/mol
N17F | 2.98 kcal/mol
N17Q | 3.2 kcal/mol
N17M | 2.94 kcal/mol
N17D | 3.78 kcal/mol
N17H | 3.01 kcal/mol
N17W | 3.09 kcal/mol
N17G | 1.46 kcal/mol
N17R | 2.68 kcal/mol
N17Y | 2.75 kcal/mol

Variant | folding stability dG
N17I | 1.54 kcal/mol
N17L | 3.13 kcal/mol
N17A | 2.65 kcal/mol
N17P | 1.03 kcal/mol
N17T | 1.63 kcal/mol
N17S | 2.19 kcal/mol
N17E | 3.38 kcal/mol
N17K | 2.41 kcal/mol
N17V | 1.45 kcal/mol
N17C | 1.99 kcal/mol
A21C | 1.29 kcal/mol
A21F | 0.6 kcal/mol
A21V | 0.589 kcal/mol
A21D | 0.52 kcal/mol
A21L | 0.541 kcal/mol
A21E | 0.568 kcal/mol
A21H | 0.313 kcal/mol
A21K | 0.184 kcal/mol
A21S | 1.11 kcal/mol
A21M | 0.506 kcal/mol
A21T | 0.424 kcal/mol
A21G | 1.13 kcal/mol
A21R | 0.336 kcal/mol
A21Q | 0.364 kcal/mol

Variant | folding stability dG
A21W | 0.514 kcal/mol
A21I | 0.511 kcal/mol
A21N | 0.483 kcal/mol
A21Y | 0.355 kcal/mol
A21P | 0.448 kcal/mol
A12G | 0.656 kcal/mol
A12F | 2.87 kcal/mol
A12Q | 2.69 kcal/mol
A12C | 1.94 kcal/mol
A12N | 2.1 kcal/mol
A12K | 0.896 kcal/mol
A12D | 0.746 kcal/mol
A12S | 2.15 kcal/mol
A12V | 1.06 kcal/mol
A12H | 2.85 kcal/mol
A12E | 2.85 kcal/mol
A12Y | 2.88 kcal/mol
A12W | 3.01 kcal/mol
A12L | 3.02 kcal/mol
A12I | 1.24 kcal/mol
A12P | 0.229 kcal/mol
A12M | 2.86 kcal/mol
A12T | 1.43 kcal/mol
A12R | 0.882 kcal/mol

Variant | folding stability dG
K20F | 2.98 kcal/mol
K20A | 3.16 kcal/mol
K20M | 3.37 kcal/mol
K20I | 3.16 kcal/mol
K20T | 2.76 kcal/mol
K20G | 2.5 kcal/mol
K20S | 2.6 kcal/mol
K20Y | 3.13 kcal/mol
K20D | 2.85 kcal/mol
K20L | 4.31 kcal/mol
K20N | 2.27 kcal/mol
K20Q | 3.19 kcal/mol
K20V | 3.24 kcal/mol
K20W | 3.02 kcal/mol
K20H | 2.87 kcal/mol
K20P | 0.93 kcal/mol
K20E | 3.82 kcal/mol
K20R | 3 kcal/mol
E23L | 2.16 kcal/mol
E23G | 1.92 kcal/mol
E23V | 2.17 kcal/mol
E23Q | 2.73 kcal/mol
E23A | 2.87 kcal/mol
E23Y | 1.79 kcal/mol

Variant | folding stability dG
E23K | 2.26 kcal/mol
E23W | 1.79 kcal/mol
E23D | 2.56 kcal/mol
E23H | 1.96 kcal/mol
E23M | 2.33 kcal/mol
E23R | 2.39 kcal/mol
E23S | 2.42 kcal/mol
E23T | 2.22 kcal/mol
E23P | 0.537 kcal/mol
E23F | 1.7 kcal/mol
E23C | 2.49 kcal/mol
E23I | 2.35 kcal/mol
E23N | 2.02 kcal/mol
R15D | 2.85 kcal/mol
R15C | 2.31 kcal/mol
R15H | 3 kcal/mol
R15F | 2.62 kcal/mol
R15L | 3.09 kcal/mol
R15Q | 3.39 kcal/mol
R15V | 2.83 kcal/mol
R15P | 0.627 kcal/mol
R15W | 2.81 kcal/mol
R15T | 2.81 kcal/mol
R15I | 2.77 kcal/mol

Variant | folding stability dG
R15E | 3.24 kcal/mol
R15N | 3.17 kcal/mol
R15A | 3.36 kcal/mol
R15M | 3.21 kcal/mol
R15Y | 2.69 kcal/mol
R15S | 3.1 kcal/mol
R15K | 2.91 kcal/mol
R15G | 2.71 kcal/mol
A25K | 0.845 kcal/mol
A25Y | 0.541 kcal/mol
A25Q | 2.15 kcal/mol
A25D | 0.442 kcal/mol
A25N | 0.52 kcal/mol
A25C | 1.54 kcal/mol
A25F | 0.695 kcal/mol
A25W | -0.051 kcal/mol
A25G | 1.3 kcal/mol
A25M | 1.88 kcal/mol
A25T | 1.01 kcal/mol
A25I | 0.742 kcal/mol
A25P | 0.533 kcal/mol
A25S | 1.74 kcal/mol
A25E | 0.618 kcal/mol
A25V | 1.37 kcal/mol

Variant | folding stability dG
A25R | 1.16 kcal/mol
A25H | 0.547 kcal/mol
A25L | 0.818 kcal/mol
I24K | 0.623 kcal/mol
I24F | 1.48 kcal/mol
I24N | 0.704 kcal/mol
I24M | 2.13 kcal/mol
I24V | 1.87 kcal/mol
I24T | 1.32 kcal/mol
I24R | 1.04 kcal/mol
I24D | 0.95 kcal/mol
I24A | 1.47 kcal/mol
I24H | 1.67 kcal/mol
I24W | 1.34 kcal/mol
I24E | 1.16 kcal/mol
I24P | 0.59 kcal/mol
I24Q | 1.13 kcal/mol
I24G | 0.729 kcal/mol
I24S | 0.921 kcal/mol
I24L | 2.8 kcal/mol
I24Y | 1.73 kcal/mol
I24C | 1.77 kcal/mol

Source: the MegaScale stability set (Tsuboyama et al. 2023)
